From patent US20210139548A1 (published 2021)
Values belong to the binder of their own block, whether it stands above or below them. *1 amine or outer side, *2 acyl side, *3 side chain or, on linkers, in order; H or OH if unused. Side-chain parts run from the residue outwards. The star is where a group is joined. C18 diacid = O=C(O)CCCCCCCCCCCCCCCCC(=O)*; γGlu = O=C(O)[C@H](CCC(=O)[*:2])N[*:1]; Isovaleryl = CC(C)CC(=O)*; AEEA = NCCOCCOCC(=O)O

Target: T1, human neuropeptide Y2 receptor (human, UniProt P49146 1-381)
T1 construct: whole, on cells; also called hNPY2 receptor; hNPY2-R
T1 sequence (looked up): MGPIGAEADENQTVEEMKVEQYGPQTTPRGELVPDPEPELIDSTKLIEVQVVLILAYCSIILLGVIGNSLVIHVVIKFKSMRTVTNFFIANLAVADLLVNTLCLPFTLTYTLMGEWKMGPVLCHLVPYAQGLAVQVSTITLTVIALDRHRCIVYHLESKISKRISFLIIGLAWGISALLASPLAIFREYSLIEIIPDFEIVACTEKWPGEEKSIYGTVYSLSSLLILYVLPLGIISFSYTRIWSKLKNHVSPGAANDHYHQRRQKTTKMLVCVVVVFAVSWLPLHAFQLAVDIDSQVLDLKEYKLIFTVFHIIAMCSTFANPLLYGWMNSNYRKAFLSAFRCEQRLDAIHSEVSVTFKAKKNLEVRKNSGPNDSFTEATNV
Test: radioligand competition (125I-PYY(1-36)), hNPY2R membranes
Outline: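 Commercial human Y2 receptor membranes (0.5 μg protein/well) were incubated with peptide for 2 h at room temperature in 50 mM HEPES, 5 mM MgCl₂, 1 mM CaCl₂, pH 7.4, with 0.2% ovalbumin. Bound radioligand was separated on PEI-soaked GF/C filters and counted by scintillation, and IC₅₀ came from nonlinear sigmoidal regression.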

- Ki: 5.22 nM
B1: Compound 71 (peptide)
peptide: Isovaleryl-APEK([AEEA-AEEA-γGlu-C18 diacid])PEEEASPSELQRYYVSLRHYYNWLTRQRY-NH2
SMILES: CC(C)CC(=O)N[C@@H](C)C(=O)N1CCC[C@H]1C(=O)N[C@@H](CCC(=O)O)C(=O)N[C@@H](CCCCNC(=O)COCCOCCNC(=O)COCCOCCNC(=O)CC[C@H](NC(=O)CCCCCCCCCCCCCCCCC(=O)O)C(=O)O)C(=O)N1CCC[C@H]1C(=O)N[C@@H](CCC(=O)O)C(=O)N[C@@H](CCC(=O)O)C(=O)N[C@@H](CCC(=O)O)C(=O)N[C@@H](C)C(=O)N[C@@H](CO)C(=O)N1CCC[C@H]1C(=O)N[C@@H](CO)C(=O)N[C@@H](CCC(=O)O)C(=O)N[C@@H](CC(C)C)C(=O)N[C@@H](CCC(N)=O)C(=O)N[C@@H](CCCNC(=N)N)C(=O)N[C@@H](Cc1ccc(O)cc1)C(=O)N[C@@H](Cc1ccc(O)cc1)C(=O)N[C@H](C(=O)N[C@@H](CO)C(=O)N[C@@H](CC(C)C)C(=O)N[C@@H](CCCNC(=N)N)C(=O)N[C@@H](Cc1c[nH]cn1)C(=O)N[C@@H](Cc1ccc(O)cc1)C(=O)N[C@@H](Cc1ccc(O)cc1)C(=O)N[C@@H](CC(N)=O)C(=O)N[C@@H](Cc1c[nH]c2ccccc12)C(=O)N[C@@H](CC(C)C)C(=O)N[C@H](C(=O)N[C@@H](CCCNC(=N)N)C(=O)N[C@@H](CCC(N)=O)C(=O)N[C@@H](CCCNC(=N)N)C(=O)N[C@@H](Cc1ccc(O)cc1)C(N)=O)[C@@H](C)O)C(C)C

- Ki: 6.17 nM
B2: Compound 77 (peptide)
peptide: Isovaleryl-APEK([AEEA-AEEA-γGlu-C18 diacid])PEEDASEEELQRYYVELRHYYNWLTRQRY-NH2
SMILES: CC(C)CC(=O)N[C@@H](C)C(=O)N1CCC[C@H]1C(=O)N[C@@H](CCC(=O)O)C(=O)N[C@@H](CCCCNC(=O)COCCOCCNC(=O)COCCOCCNC(=O)CC[C@H](NC(=O)CCCCCCCCCCCCCCCCC(=O)O)C(=O)O)C(=O)N1CCC[C@H]1C(=O)N[C@@H](CCC(=O)O)C(=O)N[C@@H](CCC(=O)O)C(=O)N[C@@H](CC(=O)O)C(=O)N[C@@H](C)C(=O)N[C@@H](CO)C(=O)N[C@@H](CCC(=O)O)C(=O)N[C@@H](CCC(=O)O)C(=O)N[C@@H](CCC(=O)O)C(=O)N[C@@H](CC(C)C)C(=O)N[C@@H](CCC(N)=O)C(=O)N[C@@H](CCCNC(=N)N)C(=O)N[C@@H](Cc1ccc(O)cc1)C(=O)N[C@@H](Cc1ccc(O)cc1)C(=O)N[C@H](C(=O)N[C@@H](CCC(=O)O)C(=O)N[C@@H](CC(C)C)C(=O)N[C@@H](CCCNC(=N)N)C(=O)N[C@@H](Cc1c[nH]cn1)C(=O)N[C@@H](Cc1ccc(O)cc1)C(=O)N[C@@H](Cc1ccc(O)cc1)C(=O)N[C@@H](CC(N)=O)C(=O)N[C@@H](Cc1c[nH]c2ccccc12)C(=O)N[C@@H](CC(C)C)C(=O)N[C@H](C(=O)N[C@@H](CCCNC(=N)N)C(=O)N[C@@H](CCC(N)=O)C(=O)N[C@@H](CCCNC(=N)N)C(=O)N[C@@H](Cc1ccc(O)cc1)C(N)=O)[C@@H](C)O)C(C)C
